As a reminder, the Km is the substrate concentration at which the rate is half of its maximum.

Like-named read-outs stand apart in the source and are kept apart here.

Data set [1] deals with hxt null mutant EBY.4000 strain. The note with it: HXT1 expressed in EBY.4000, Özcan and Johnston 1999, cited from earlier work.
The subject of data set [2] is S. cerevisiae W303-1A lactic acid-grown cells. The note with it: cited from earlier work.
Data set [3] concerns S. cerevisiae W303-1A jen1Δ ady2Δ cells. The data set is classed as cell-based. As to conditions: for Kd (diffusion component) for lactate, non-mediated transport: cells grown in YNB lactic acid. The procedure: FIG. 4. Initial uptake rates of the radiolabelled 14C -Lactic acid at different concentrations. S. cerevisaie W303-1A jen1 Δady2Δ cells containing the plasmid pNJ-LctP-CJ-GFP and pNJ-LIdp-CJ-GFP were grown in YNB Lactic acid medium at pH 5.5 and 30° C., until mid-exponential growth phase.
In an embodiment, to confirm the successful heterologous expression of transporters in this system several studies were carried out as described in (Soares-Silva, et al. 2015): radiolabelled lactate uptake assays, growth assays in solid minimal medium with carboxylates or sugars as sole carbon source and fluorescence microscopy to detect the location of GFP fusion proteins.
The growth of the S. cerevisiae ady2Δjen1Δ strain expressing the NJ-LldP-CJ-GFP protein and control strains were evaluated in YNB media (supplemented according to the required auxotrophies) containing lactic acid (0.5%) pH 5.5 at 18° C. The S. cerevisiae ady2Δjen1Δ strains expressing the native LIdP (pLIdP), the empty vector (p416GPD) and the ScJen1p (pDS1) were used as controls.
As a control the IctP gene was cloned in the p416GPD vector. For this construct the IctP gene was amplified from S. aureus genomic DNA using the primers LcFWD and LcREV (Table 1) and inserted and ligated in the p416GPD vector using the restriction enzymes BamHI and EcoRI. […] The growth of S. cerevisiae strains was tested in YNB media (supplemented according to the required auxotrophies) containing lactic acid 0.5% (pH 5.5).

B1: HXT1: S. cerevisiae low affinity glucose transporter, positive control (protein, UniProt P32465 1-570, looked up)
Low-affinity glucose …: MNSTPDLISPQKSNSSNSYELESGRSKAMNTPEGKNESFHDNLSESQVQPAVAPPNTGKGVYVTVSICCVMVAFGGFIFGWDTGTISGFVAQTDFLRRFGMKHHDGSHYLSKVRTGLIVSIFNIGCAIGGIVLAKLGDMYGRRIGLIVVVVIYTIGIIIQIASINKWYQYFIGRIISGLGVGGITVLSPMLISEVAPSEMRGTLVSCYQVMITLGIFLGYCTNFGTKNYSNSVQWRVPLGLCFAWALFMIGGMMFVPESPRYLVEAGRIDEARASLAKVNKCPPDHPYIQYELETIEASVEEMRAAGTASWGELFTGKPAMFQRTMMGIMIQSLQQLTGDNYFFYYGTIVFQAVGLSDSFETSIVFGVVNFFSTCCSLYTVDRFGRRNCLMWGAVGMVCCYVVYASVGVTRLWPNGQDQPSSKGAGNCMIVFACFYIFCFATTWAPIAYVVISECFPLRVKSKCMSIASAANWIWGFLISFFTPFITGAINFYYGYVFMGCMVFAYFYVFFFVPETKGLSLEEVNDMYAEGVLPWKSASWVPVSKRGADYNADDLMHDDQPFYKSLFSRK
For the molecule B1, the “Glucose concentration at which growth is restored” value in data set [1] is listed as “above 1%”. Also, the Km in data set [1] (read-out: Km of low-affinity glucose transport) was 100000 µM.

B2: ScJen1: S. cerevisiae lactate transporter Jen1, positive control (protein, UniProt P36035 2-616, looked up)
Carboxylic acid transporter …: SSSITDEKISGEQQQPAGRKLYYNTSTFAEPPLVDGEGNPINYEPEVYNPDHEKLYHNPSLPAQSIQDTRDDELLERVYSQDQGVEYEEDEEDKPNLSAASIKSYALTRFTSLLHIHEFSWENVNPIPELRKMTWQNWNYFFMGYFAWLSAAWAFFCVSVSVAPLAELYDRPTKDITWGLGLVLFVRSAGAVIFGLWTDKSSRKWPYITCLFLFVIAQLCTPWCDTYEKFLGVRWITGIAMGGIYGCASATAIEDAPVKARSFLSGLFFSAYAMGFIFAIIFYRAFGYFRDDGWKILFWFSIFLPILLIFWRLLWPETKYFTKVLKARKLILSDAVKANGGEPLPKANFKQKMVSMKRTVQKYWLLFAYLVVLLVGPNYLTHASQDLLPTMLRAQLGLSKDAVTVIVVVTNIGAICGGMIFGQFMEVTGRRLGLLIACTMGGCFTYPAFMLRSEKAILGAGFMLYFCVFGVWGILPIHLAELAPADARALVAGLSYQLGNLASAAASTIETQLADRYPLERDASGAVIKEDYAKVMAILTGSVFIFTFACVFVGHEKFHRDLSSPVMKKYINQVEEYEADGLSISDIVEQKTECASVKMIDSNVSKTYEEHIETV
modifications: GFP fusion
notes: S. cerevisiae lactate transporter Jen1, positive control
B2: the Km in data set [2] (Casal 1999, Paiva 2013, read-out: Km for lactate uptake) was 290 µM; in data set [3] (14C-lactic acid uptake, pH 5.0, cells grown in YNB lactic acid pH 5.5, 30° C., mid-exponential phase, read-out: Km for lactic acid uptake) it was 270 ± 40 µM; in data set [3] (positive control in FIG. 4 legend, 14C-lactic acid, read-out: Km value for lactic acid uptake (unit inferred)), 270 µM. For the same molecule, the “Vmax for lactate uptake” value in data set [2] (Casal 1999, Paiva 2013) was 0.40 nmol of lactic acid s1 mg of dry weight1. Besides, in data set [3] (14C-lactic acid uptake, pH 5.0, cells grown in YNB lactic acid pH 5.5, 30° C., mid-exponential phase), the “Vmax for lactic acid uptake” value is on record as 0.23±0.01 nmol s-1 mg-1 dry wt. In data set [3] (positive control in FIG. 4 legend, 14C-lactic acid), the “Vmax for lactic acid uptake (unit not given)” value is given as 0.23.

B3: pLIdP: Native E. coli LldP lactate permease cloned in p416GPD, control without eukaryotic termini (protein, UniProt P33231 1-551, looked up)
L-lactate permease: MNLWQQNYDPAGNIWLSSLIASLPILFFFFALIKLKLKGYVAASWTVAIALAVALLFYKMPVANALASVVYGFFYGLWPIAWIIIAAVFVYKISVKTGQFDIIRSSILSITPDQRLQMLIVGFCFGAFLEGAAGFGAPVAITAALLVGLGFKPLYAAGLCLIVNTAPVAFGAMGIPILVAGQVTGIDSFEIGQMVGRQLPFMTIIVLFWIMAIMDGWRGIKETWPAVVVAGGSFAIAQYLSSNFIGPELPDIISSLVSLLCLTLFLKRWQPVRVFRFGDLGASQVDMTLAHTGYTAGQVLRAWTPFLFLTATVTLWSIPPFKALFASGGALYEWVINIPVPYLDKLVARMPPVVSEATAYAAVFKFDWFSATGTAILFAALLSIVWLKMKPSDAISTFGSTLKELALPIYSIGMVLAFAFISNYSGLSSTLALALAHTGHAFTFFSPFLGWLGVFLTGSDTSSNALFAALQATAAQQIGVSDLLLVAANTTGGVTGKMISPQSIAIACAAVGLVGKESDLFRFTVKHSLIFTCIVGVITTLQAYVLTWMIP
As to B3, the “Kd (diffusion component) for lactate, non-mediated transport” value in data set [3] (14C-lactic acid uptake) was found to be 47 ± 2.5 µM; in data set [3] (14C-lactic acid uptake, listed as Lldp) it was 43 ± 2 µM. Also, the “Transport mechanism for labelled lactic acid” value in data set [3] (lactic acid uptake, pH 5.0) was “non-mediated transport mechanism”.

(Values after patent publication US20200263187A1, “A METHOD FOR EXPRESSION OF A PROKARYOTIC MEMBRANE PROTEIN IN AN EUKARYOTIC ORGANISM, PRODUCTS AND USES THEREOF” (Universidade Do Minho, priority 2017, published 2020).)
